Molecular target: T1, GST-PA14_51020-His (antitoxin) (Pseudomonas aeruginosa PA14) (UniProt A0A0H2Z7N8)
T1 sequence: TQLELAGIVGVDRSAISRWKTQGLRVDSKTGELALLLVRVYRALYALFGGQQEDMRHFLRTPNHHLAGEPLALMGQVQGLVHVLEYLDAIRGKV
Experiment: EMSA

In the case of “CGGGCTGGAAGGTGGAGCGGGGAATCCGTCTGCAGGCGCCGCCTTTCTCCGATCACGAGGCTGCGCTGACCGACATCGCCGACTACCGCGCTCCCCAGGAACTGGGGAGTGCCATGCGCAGCGCCGGGGTGCAGGCATTCGAATACCGTTCGGCGCGTTGCCCGGAGCGCGGCTGCAATGTCGCCCTGTTCACGCCCGCG (double strand) [PA14_51010 coding region internal fragment]”, the binding is reported as “no binding”.

With “GTTTTTCTCTCTATCACGCCGGTCAATGCTTGCGCGTGGTTCTCTAGGTTCGACCGAATCAAGGTGTGTTTTCAGCAAAATAATGATAGTTTGTTGTAAACACACATGAGGAGGTCGTCATGAGCGCTCTCATCAAGGAACGTCCCAGCGCCGATGCTGTCCTGGCCAAGGCCGTCCTGGCCGCGCGCGAGCAATTGGGG (double strand) [PA14_51020 upstream (operon promoter) fragment]” the binding was “binds”.

Reference: publication PMC8065639
